The text below walks through data of patent US20150018409A1, “CHIMERIC POLYPEPTIDES AND THEIR USE” (ADRIACELL S.P.A., priority 2003, published 2015).

The subject of test [1] is MO59J (DNA-PKcs−/−) glioblastoma cells compared to MO59K. The test can be described thus: Colony forming assay with automatic analysis (VersaDoc). Type of test: cell-based, human. Particulars: single treatment for 12 hours. More on the design: dose or concentration left out as unconfirmed. The text has this: Statistical analysis of the results was done and is represented as a histogram. […] An example of the colony forming assay is shown. The assay was done employing various concentrations of cells in the order of three magnitudes (from the upper to the lower rows, 1×10^4, 2×10^3, 4×10^2, 8×10). On the right B), the histograms of the results from the colony forming assay of the cell-lines MO59J compared to MO59K is shown. The assays were done as in FIG. 9 but analysed with the aid of the Versadoc 4 (BioRad) system. […]

Test [2] relates to neuroblastoma cells G1-LIN. The experiment in a line: Apoptosis by FACS analysis of DNA content (below 2N). Type of test: cell-based. As to conditions: 30 hours. On the procedure:
FACS analysis of the DNA content stained with propidium J^− of the neuroblastoma cells G1-LIN after […] treatment (10 nM, panel C; 100 nM panel B). The treatment of the samples was done for 30 hours. As a control samples treated with SC34 were used (100 nM, panel D) or not treated (panel A). At the bottom of each panel the representative percentage of the cell cycle phase distributions obtained are indicated (G1/S/G2-M). (A) indicates apoptotic cells.

B1: SCPVUTAT: single chain PvuII endonuclease (aa 1-157, GSGG linker, aa 2-157) fused to HIV Tat peptide and six histidine tag; SEQ ID NO:2 (protein, listed as Proteus vulgaris)
chain: MSHPDLNKLLELWPHIQEYQDLALKHGINDIFQDNGGKLLQVLLITGLTVLPGREGNDAVDNAGQEYELKSINIDLTKGFSTHHHMNPVIIAKYRQVPWIFAIYRGIAIEAIYRLEPKDLEFYYDKWERKWYSDGHKDINNPKIPVKYVMEHGTKIYGSGGSHPDLNKLLELWPHIQEYQDLALKHGINDIFQDNGGKLLQVLLITGLTVLPGREGNDAVDNAGQEYELKSINIDLTKGFSTHHHMNPVIIAKYRQVPWIFAIYRGIAIEAIYRLEPKDLEFYYDKWERKWYSDGHKDINNPKIPVKYVMEHGTKIYGSYGRKKRRQRRRGGSHHHHHH
With B1, the “sensitivity in colony forming assay versus parental MO59K” value in test [1] is given as “significant differential increase in sensibility”. The apoptotic cells is recorded as 18% in test [2] (10 nM) and “more than 29%” in test [2] (100 nM).
